Test results as given in PMC7616425 (2024).

Key:
[1] = molecular target: Alexa647-labeled RhoGDI1 L56V (bovine, UniProt P19803 1-204, L56V, Alexa647 acceptor (site not stated)); test: FRET
[2] = molecular target: Alexa647-labeled RhoGDI1 L56A (bovine, UniProt P19803 1-204, L56A, Alexa647 acceptor (site not stated)); test: FRET

B1: Cy3-labeled, prenylated Cdc42 (natural protein)
chain: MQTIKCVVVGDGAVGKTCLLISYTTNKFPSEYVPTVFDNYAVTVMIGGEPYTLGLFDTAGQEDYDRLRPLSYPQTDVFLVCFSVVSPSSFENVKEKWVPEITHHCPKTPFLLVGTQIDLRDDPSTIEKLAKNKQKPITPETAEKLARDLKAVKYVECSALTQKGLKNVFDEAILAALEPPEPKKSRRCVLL
modifications: prenylated (residue not stated); Cy3 donor (site not stated)
- koff [1]: 0.003 s⁻¹
- koff [2]: 0.08 s⁻¹
